Here are results for one molecule from publication PMC6978347.

What is called Kd is a measure of binding affinity in units of concentration. A low value points to higher affinity.

The assay has as its target polymerization-deficient p62^1–102 (D69A/D73A) (human) (UniProt Q13501). Description: ITC; VP-ITC, 25 °C, 10 mM HEPES pH 7.5, 150 mM NaCl; p62 D69A/D73A in the cell (5–20 μM), partner PB1 domain in the syringe (25–100 μM); one-site model; mean of three measurements. For orientation: In ITC the heat of successive injections is recorded.

B1: MEKK3^43–127 (MEKK3–PB1) (domain or fragment)
chain: SDVRIKFEHNGERRIIAFSRPVKYEDVEHKVTTVFGQPLDLHYMNNELSILLKNQDDLDKAIDILDRSSSMKSLRILLLSQDRNH
B1 returned a Kd of 26.8 nM.
